Data: article doi:10.1101/2023.07.18.549520

Legend:
[1] = molecular target: soluble type I collagen (acid-soluble type I atelocollagen from bovine hides) (bovine) (UniProt P02453); assay: ELISA
[2] = molecular target: type I gelatin (heat-denatured acid-soluble type I atelocollagen from bovine hides) (bovine) (UniProt P02453); assay: ELISA
[3] = molecular target: V-domain of Scl2.3 (Streptococcus pyogenes); assay: SDS-PAGE

Chain of soluble type I collagen (acid-soluble type I atelocollagen from bovine hides) (bovine) (P02453 162-1217, chain 1 of 2): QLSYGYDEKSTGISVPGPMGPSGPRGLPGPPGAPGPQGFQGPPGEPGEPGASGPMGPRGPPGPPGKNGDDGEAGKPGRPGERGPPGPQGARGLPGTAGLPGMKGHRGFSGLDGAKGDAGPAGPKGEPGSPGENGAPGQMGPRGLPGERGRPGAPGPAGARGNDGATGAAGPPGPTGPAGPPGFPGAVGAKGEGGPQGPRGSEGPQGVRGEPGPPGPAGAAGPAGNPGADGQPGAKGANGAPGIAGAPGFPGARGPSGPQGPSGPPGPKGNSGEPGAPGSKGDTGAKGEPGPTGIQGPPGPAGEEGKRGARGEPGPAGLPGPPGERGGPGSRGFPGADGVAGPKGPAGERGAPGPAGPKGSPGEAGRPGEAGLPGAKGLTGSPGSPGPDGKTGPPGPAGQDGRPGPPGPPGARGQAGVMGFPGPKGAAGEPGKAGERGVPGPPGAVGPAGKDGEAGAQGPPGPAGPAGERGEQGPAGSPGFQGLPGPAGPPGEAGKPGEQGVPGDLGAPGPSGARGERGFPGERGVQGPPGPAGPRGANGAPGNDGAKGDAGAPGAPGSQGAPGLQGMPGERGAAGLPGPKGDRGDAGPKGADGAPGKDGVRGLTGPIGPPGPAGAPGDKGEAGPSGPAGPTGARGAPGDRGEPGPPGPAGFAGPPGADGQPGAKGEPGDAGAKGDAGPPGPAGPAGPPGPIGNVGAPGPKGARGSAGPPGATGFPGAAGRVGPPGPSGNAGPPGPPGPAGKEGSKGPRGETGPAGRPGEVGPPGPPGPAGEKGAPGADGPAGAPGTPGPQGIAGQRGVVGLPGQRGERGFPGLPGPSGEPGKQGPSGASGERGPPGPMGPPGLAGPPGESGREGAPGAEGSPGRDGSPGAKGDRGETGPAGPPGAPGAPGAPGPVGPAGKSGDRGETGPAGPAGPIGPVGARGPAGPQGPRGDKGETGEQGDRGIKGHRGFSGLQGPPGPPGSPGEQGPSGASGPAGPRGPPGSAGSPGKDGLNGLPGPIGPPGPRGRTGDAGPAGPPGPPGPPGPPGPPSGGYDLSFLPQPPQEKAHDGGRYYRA
Chain of soluble type I collagen (acid-soluble type I atelocollagen from bovine hides) (bovine) (P02465 80-1117, chain 2 of 2, further chain): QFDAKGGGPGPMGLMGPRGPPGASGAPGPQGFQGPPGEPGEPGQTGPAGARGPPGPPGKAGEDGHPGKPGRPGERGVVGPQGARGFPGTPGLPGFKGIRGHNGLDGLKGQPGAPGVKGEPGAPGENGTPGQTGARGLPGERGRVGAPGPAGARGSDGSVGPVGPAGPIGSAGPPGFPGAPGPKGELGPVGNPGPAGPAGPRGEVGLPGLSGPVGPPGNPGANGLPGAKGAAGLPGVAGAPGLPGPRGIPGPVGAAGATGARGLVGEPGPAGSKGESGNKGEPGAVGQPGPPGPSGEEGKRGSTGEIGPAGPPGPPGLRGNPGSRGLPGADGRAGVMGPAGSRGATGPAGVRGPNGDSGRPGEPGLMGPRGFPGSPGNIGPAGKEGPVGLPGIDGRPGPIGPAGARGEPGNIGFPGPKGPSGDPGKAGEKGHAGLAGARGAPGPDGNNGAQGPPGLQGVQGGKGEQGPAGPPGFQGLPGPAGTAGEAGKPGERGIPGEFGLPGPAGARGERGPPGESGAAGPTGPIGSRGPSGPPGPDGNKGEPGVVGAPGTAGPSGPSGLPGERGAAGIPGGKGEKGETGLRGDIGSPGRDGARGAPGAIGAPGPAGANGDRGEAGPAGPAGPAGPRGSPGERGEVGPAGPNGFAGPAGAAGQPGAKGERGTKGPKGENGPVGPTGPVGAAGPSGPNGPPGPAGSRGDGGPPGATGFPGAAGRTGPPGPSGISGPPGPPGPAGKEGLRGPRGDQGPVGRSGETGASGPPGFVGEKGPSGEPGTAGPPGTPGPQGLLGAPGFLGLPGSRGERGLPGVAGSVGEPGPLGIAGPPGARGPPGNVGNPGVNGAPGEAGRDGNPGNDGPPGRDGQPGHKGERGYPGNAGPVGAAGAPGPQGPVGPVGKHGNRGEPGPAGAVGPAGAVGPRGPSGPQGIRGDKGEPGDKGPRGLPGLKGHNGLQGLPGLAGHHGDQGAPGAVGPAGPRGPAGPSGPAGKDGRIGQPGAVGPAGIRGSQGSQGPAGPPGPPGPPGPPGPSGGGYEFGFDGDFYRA
Chain of type I gelatin (heat-denatured acid-soluble type I atelocollagen from bovine hides) (bovine) (P02453 162-1217, chain 1 of 2): as the sequence (P02453 162-1217, chain 1 of 2) above
Chain of type I gelatin (heat-denatured acid-soluble type I atelocollagen from bovine hides) (bovine) (P02465 80-1117, chain 2 of 2, further chain): as the sequence (P02465 80-1117, chain 2 of 2, further chain) above

Substance | Kd [1] [nM] | Kd [2] [nM] | fold increase in affinity against ColQ1-CU G472V (WT) [1] [fold] | other results
ColG-CU E524A (Y119-G790) (domain or fragment) | 370 | 80 | – | –
ColG-PD E524A (D398-G790) (domain or fragment) | 497000 | 243000 | – | –
ColQ1-CU G472V (domain or fragment) | 1600 | 1600 | – | –
ColQ1-CU G472V F176A (domain or fragment) | – | – | 20 | –
ColQ1-CU G472V N226A (domain or fragment) | – | – | – | fold reduction in binding affinity against ColQ1-CU G472V (WT) [1]: > 90 fold; fold drop in binding affinity against ColQ1-CU G472V (WT) [2]: 90 fold
ColQ1-CU G472V R169A (domain or fragment) | – | – | 9 | –
ColQ1-CU G472V Y173A (domain or fragment) | – | – | – | fold drop in binding affinity against ColQ1-CU G472V (WT) [2]: 15 fold
ColQ1-CU G472V Y270A (domain or fragment) | – | – | 8 | –
V-domain of Scl2.3 (domain or fragment) | – | – | – | stoichiometry N [3]: 3
